B1: NVX.324.6 (antibody, V domains shown)
VH: EVQLQQSGPELGKPGTSMKISCKASGYSFTGYTMNWVKQSHGKNLEWIGLINPYNGGTSYNQKFKDKATLTVDKSSSTAYMELLSLTSEDSAVYYCVREHYYYDSGYGGYYAMDYWGQGTSVTVSS
VL: QIVLSQSPAILSASPGDKVTMTCRASASVNYMYWYQQKPGSSPKPWIYATSNLASGVPARFSGSGSGTSYSLTISRVEAEDAAIYYCQQWSSNPYTFGGGTKLEIK
notes: also called mAb NVX.324.6
B2: NVX.62.12 (antibody, V domains shown)
VH: QVQLQQSGAELVRPGVSVKISCKGSGYTFTDYAMHWVKQSHAKSLEWIGVISTYSGDAYYNQKFKGKATVTVDKSSSTAYMELARLTSEDSAIYFCARNWDDYYAMDYWGQGTSVTVSS
VL: QIILSQSPAILSASPGERVTMTCRATSSVSYMHWYRQKPGSSPQPWIYATSNLASGVPARFSGSGSGTSYSLTISRVEAEDAATYYCQQWSGNPWTFGGGTKLEIK
notes: also called mAb NVX.62.12

Key:
[1] = target: T1, Prototype (Wuhan-Hu-1) rS (SARS-CoV-2 (parent virus, Wuhan-Hu-1), UniProt P0DTC2 14-1273); assay: ELISA: rS coated, mAb titrated, anti-mouse HRP
T1 construct: also called Prototype rS; Prototype spike

[2] = target: T1, Prototype (Wuhan-Hu-1) rS

Binder | EC50 [1] [µg/mL] | IC50 [2] [µg/mL]
B1 | > 5 | > 3
B2 | > 5 | > 3
